The record followed here is US20260250402A1 (C O INMAGENE PTE, published 2026).

The target in test [1] is T1, human IL-7Ra expressed on CHOK1-human IL-7Ra cells (human, UniProt P16871 21-459).
T1 construct: also called human IL-7Ra expressed on cell membrane; CD127
T1 sequence: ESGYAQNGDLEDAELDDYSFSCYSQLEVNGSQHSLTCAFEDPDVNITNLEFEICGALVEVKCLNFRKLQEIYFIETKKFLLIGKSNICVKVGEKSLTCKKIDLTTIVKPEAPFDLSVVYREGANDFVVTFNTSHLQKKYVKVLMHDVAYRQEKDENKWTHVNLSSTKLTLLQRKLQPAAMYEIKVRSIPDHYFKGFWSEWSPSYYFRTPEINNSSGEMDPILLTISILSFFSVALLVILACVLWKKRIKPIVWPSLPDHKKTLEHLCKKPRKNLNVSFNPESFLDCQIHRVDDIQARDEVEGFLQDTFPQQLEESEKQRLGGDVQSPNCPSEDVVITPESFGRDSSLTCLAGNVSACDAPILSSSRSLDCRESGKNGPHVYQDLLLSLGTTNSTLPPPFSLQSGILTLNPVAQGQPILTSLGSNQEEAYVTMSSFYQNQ
Kind of test: flow cytometry on CHOK1-human IL-7Ra cells, MFI (upper left panel). A general note: Flow cytometry measures light scatter and fluorescence of single cells or particles in a stream.

The target in test [2] is T2, cynomolgus IL-7Ra expressed on CHOK1-cyno IL-7Ra cells (cynomolgus, UniProt Q38IC7 21-459).
T2 sequence: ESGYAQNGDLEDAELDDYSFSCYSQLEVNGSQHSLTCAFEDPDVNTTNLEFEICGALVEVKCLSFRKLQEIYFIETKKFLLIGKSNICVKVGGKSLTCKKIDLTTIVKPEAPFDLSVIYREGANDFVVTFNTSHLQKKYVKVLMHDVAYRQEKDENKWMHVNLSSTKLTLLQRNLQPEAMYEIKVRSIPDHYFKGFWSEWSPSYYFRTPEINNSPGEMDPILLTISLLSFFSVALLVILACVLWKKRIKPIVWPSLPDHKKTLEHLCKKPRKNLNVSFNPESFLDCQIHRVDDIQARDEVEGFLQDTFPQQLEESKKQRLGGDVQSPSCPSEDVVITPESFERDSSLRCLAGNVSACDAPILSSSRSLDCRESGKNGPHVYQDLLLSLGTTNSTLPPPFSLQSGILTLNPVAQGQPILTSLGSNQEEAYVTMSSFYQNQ
Kind of test: flow cytometry on CHOK1-cyno IL-7Ra cells, MFI (upper right panel).

The target of test [3] is T1, human IL-7Ra expressed on CHOK1-human …. As to the kind of experiment: flow cytometry, CHOK1-human IL-7Ra cells.
Test [4] shares this target. Kind of test: flow cytometry on CHOK1-human IL-7Ra cells, MFI (upper left panel). The source holds these as a separate data set.
The target of test [5] is T2, cynomolgus IL-7Ra expressed on …. As to the kind of experiment: flow cytometry, CHOK1-cyno IL-7Ra cells.
For test [6] the target is unchanged. As to the kind of experiment: flow cytometry on CHOK1-cyno IL-7Ra cells, MFI (upper right panel). The source holds these as a separate data set.
Test [7] addresses T1, human IL-7Ra expressed on CHOK1-human …. As to the kind of experiment: flow cytometry blocking assay: binding of hIL-7-his (0.1 ug/ml) to CHOK1-human IL-7Ra cells in the presence of the antibody, anti-His Alexa Fluor 488, MFI (right panel).
The target in test [8] is T3, human Fc-tag IL-7Ra protein (human, UniProt P16871 21-239).
T3 construct: also called human IL-7Ra protein; not shown: Fc tag fused to the N-terminus
T3 sequence: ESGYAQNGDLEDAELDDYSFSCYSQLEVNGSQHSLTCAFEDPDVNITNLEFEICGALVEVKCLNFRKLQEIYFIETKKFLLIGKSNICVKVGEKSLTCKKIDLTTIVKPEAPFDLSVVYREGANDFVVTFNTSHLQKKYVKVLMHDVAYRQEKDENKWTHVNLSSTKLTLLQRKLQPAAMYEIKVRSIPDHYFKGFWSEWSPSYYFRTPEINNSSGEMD
As to the kind of experiment: ELISA, plate coated with human Fc-tag IL-7Ra protein, HRP-labelled secondary antibody, OD 450 (left panel).

For test [9], the target named is T4, cynomolgus Fc-tag IL-7Ra protein (cynomolgus, UniProt Q38IC7 21-240).
T4 construct: also called cynomolgus IL-7Ra protein; not shown: Fc tag
T4 sequence: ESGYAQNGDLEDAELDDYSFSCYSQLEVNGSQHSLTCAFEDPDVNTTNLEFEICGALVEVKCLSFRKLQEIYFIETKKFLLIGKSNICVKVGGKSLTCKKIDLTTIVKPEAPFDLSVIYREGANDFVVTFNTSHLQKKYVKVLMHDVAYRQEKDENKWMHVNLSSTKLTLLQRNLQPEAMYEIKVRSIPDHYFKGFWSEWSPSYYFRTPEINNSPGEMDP
Kind of test: ELISA, cynomolgus Fc-tag IL-7Ra protein, HRP-labelled secondary antibody, OD 450 (right panel). (ELISA stands for enzyme-linked immunosorbent assay.)

Test [10] concerns the target T5, Human his-tag IL-7Ra protein (human, UniProt P16871 21-239).
T5 construct: Construct not described; Position of the tag unknown; also called IL-7Ra (Biacore analyte); not shown: his tag
T5 sequence: T3 sequence
As to the kind of experiment: SPR Biacore 8K, antibody Fc-captured, human his-tag IL-7Ra analyte, 1:1 model. For orientation: Surface plasmon resonance follows binding to a sensor surface in real time, without labels.

In test [11] the target is T1, human IL-7Ra expressed on CHOK1-human …. As to the kind of experiment: flow cytometry blocking assay: binding of hIL-7-his to CHOK1-human IL-7Ra cells in the presence of the antibody, MFI (right panel).

Like-named read-outs stand apart in the source and are kept apart here.

B1: OSE127 (Tab2) (antibody, human IgG4 S228P, kappa, V domains shown)
VH: QVQLVESGGGLVKPGGSLRLSCAVSGFTLSDYYMAWIRQAPGKGLEWVSTISASGLRTYYPDSVKGRFTISRDNAKNSLYLQMNSLRAEDTAVYYCARPLSAHYGFNYFDYWGQGTLVTVSS
VL: DIQMTQSPSSLSASVGDRVTITCRTSEDIYQGLAWYQQKPGKAPKLLLYSANTLHIGVPSRFSGSGSGTDYTLTISSLQPEDFATYYCQQYYDYPLAFGGGTKVEIKR
notes: also called benchmark antibody OSE127
As usually defined, the EC50 (read off the curve) is the concentration that produces a half-maximal response. A word on the EC50: it is the midpoint of the concentration-response curve. A high value points to a less potent agent. By Kd is commonly meant the constant that tells how readily two partners part at equilibrium. Read a high Kd as lower affinity. In general, koff refers to the rate constant with which the complex falls apart. Low readings indicate slow dissociation, high ones fast dissociation. As a reminder, the kon is a measure of how fast the partners come together. Read a high kon as faster complex formation. Take B1: the “EC50 (read off the curve)” value in test [1] is approximately 0.08 µg/mL; in test [2] it was approximately 0.1 µg/mL; in [4], approximately 0.2 µg/mL; in test [6], approximately 0.3 µg/mL; in test [8], approximately 0.02 µg/mL; in test [9] it was approximately 0.03 µg/mL. In addition, the figures for the EC50 in test [3] and in test [5] were 0.387 µg/mL and 0.51 µg/mL, respectively. Also, the “Top (MFI)” value stood at 24300 MFI in [3] and 19100 MFI in test [5]. Besides, in test [7], the “IC50 (read off the curve)” value was approximately 0.07 µg/mL. The molecule further yielded a Kd in [10] of 0.385 nM. This molecule also showed a koff in [10] of 0.000252 s⁻¹. Also, the association rate constant (kon) in [10] amounted to 656000 M⁻¹ s⁻¹.

B2: HuAb013 (antibody, V domains shown)
VH: QVQLVQSGAEVKKPGASVKVSCKASGYRFTDYELHWVRQAPGQGLEWMGGIDPKTGGTAYNQKFKGKVTLTSDRSTSTVYMELSSLRSEDTAVYYCARSGGRWYFDVWGQGTTVTVSS
VL: DIVLTQSPASLAVSPGQRATITCRTSESVSIHLLHLMHWYQQKPGQPPKLLIYGASNLESGVPARFSGSGSGTDFTLTINPVEAEDTANYYCQQSIKDPYTFGGGTKVEIK
notes: Humanized version of cmAb011; also called humanized VL1 / humanized VH4
Consider B2, for which, in test [3], the EC50 is 0.0326 µg/mL and the “Top (MFI)” value was determined as 24400 MFI. In test [5], a half-maximal response (EC50) required 0.0325 µg/mL and the “Top (MFI)” value amounted to 16300 MFI. For the same molecule, the “IC50 (read off the curve)” value in test [11] was approximately 0.1 µg/mL. Moreover, in test [10], the Kd was 0.18 nM, the off-rate constant (koff) amounted to 0.000292 s⁻¹ and the on-rate (kon) was 1.63e+06 M⁻¹ s⁻¹.
